Assay results taken from article PMC11266426, “Membrane remodeling by FAM92A1 during brain development regulates neuronal morphology, synaptic function, and cognition” (Nature Communications, 2024).

Biological target: the molecule itself
Experiment: SEC-MALS; purified proteins on a Superdex 200 10/300 column at 4 °C, flow 0.5 mL/min; MiniDAWN light scattering and Optilab dRI detectors

B1: Human FAM92A1 BAR domain (residues 1-219), wild type (domain or fragment, UniProt A1XBS5 1-219, looked up)
chain: MMRRTLENRNAQTKQLQTAVSNVEKHFGELCQIFAAYVRKTARLRDKADLLVNEINAYAATETPHLKLGLMNFADEFAKLQDYRQAEVERLEAKVVEPLKTYGTIVKMKRDDLKATLTARNREAKQLTQLERTRQRNPSDRHVISQAETELQRAAMDASRTSRHLEETINNFERQKMKDIKTIFSEFITIEMLFHGKALEVYTAAYQNIQNIDEDEDLE
notes: FAM92A1 (CIBAR1), human, residues 1-219 cloned into the pHAT vector between SpeI and NsiI; residues 2-211 form the BAR domain in the crystal structure; Homodimer by crystal structure and SEC-MALS; The pHAT vector probably adds the His tag at the N-terminus (surmise); also called FAM92A1 N-terminal region; WT; source: E. coli BL21 (DE3), purified (Ni-NTA, gel filtration on Superdex 75)
Question: For B1, which “stoichiometry N” value is on record?
Answer: 2
